Experimental data from publication PMC5456053.

B1: SecA N668 (SecA 1-668) (domain or fragment)
chain: MLIKLLTKVFGSRNDRTLRRMRKVVNIINAMEPEMEKLSDEELKGKTAEFRARLEKGEVLENLIPEAFAVVREASKRVFGMRHFDVQLLGGMVLNERCIAEMRTGEGKTLTATLPAYLNALTGKGVHVVTVNDYLAQRDAENNRPLFEFLGLTVGINLPGMPAPAKREAYAADITYGTNNEYGFDYLRDNMAFSPEERVQRKLHYALVDEVDSILIDEARTPLIISGPAEDSSEMYKRVNKIIPHLIRQEKEDSETFQGEGHFSVDEKSRQVNLTERGLVLIEELLVKEGIMDEGESLYSPANIMLMHHVTAALRAHALFTRDVDYIVKDGEVIIVDEHTGRTMQGRRWSDGLHQAVEAKEGVQIQNENQTLASITFQNYFRLYEKLAGMTGTADTEAFEFSSIYKLDTVVVPTNRPMIRKDLPDLVYMTEAEKIQAIIEDIKERTAKGQPVLVGTISIEKSELVSNELTKAGIKHNVLNAKFHANEAAIVAQAGYPAAVTIATNMAGRGTDIVLGGSWQAEVAALENPTAEQIEKIKADWQVRHDAVLEAGGLHIIGTERHESRRIDNQLRGRSGRQGDAGSSRFYLSMEDALMRIFASDRVSGMMRKLGMKPGEAIEHPWVTKAIANAQRKVESRNFDIRKQLLEYDDVANDQRRAIYSQRNELLD
B2: SecA N632 (SecA 1-632) (domain or fragment)
chain: MLIKLLTKVFGSRNDRTLRRMRKVVNIINAMEPEMEKLSDEELKGKTAEFRARLEKGEVLENLIPEAFAVVREASKRVFGMRHFDVQLLGGMVLNERCIAEMRTGEGKTLTATLPAYLNALTGKGVHVVTVNDYLAQRDAENNRPLFEFLGLTVGINLPGMPAPAKREAYAADITYGTNNEYGFDYLRDNMAFSPEERVQRKLHYALVDEVDSILIDEARTPLIISGPAEDSSEMYKRVNKIIPHLIRQEKEDSETFQGEGHFSVDEKSRQVNLTERGLVLIEELLVKEGIMDEGESLYSPANIMLMHHVTAALRAHALFTRDVDYIVKDGEVIIVDEHTGRTMQGRRWSDGLHQAVEAKEGVQIQNENQTLASITFQNYFRLYEKLAGMTGTADTEAFEFSSIYKLDTVVVPTNRPMIRKDLPDLVYMTEAEKIQAIIEDIKERTAKGQPVLVGTISIEKSELVSNELTKAGIKHNVLNAKFHANEAAIVAQAGYPAAVTIATNMAGRGTDIVLGGSWQAEVAALENPTAEQIEKIKADWQVRHDAVLEAGGLHIIGTERHESRRIDNQLRGRSGRQGDAGSSRFYLSMEDALMRIFASDRVSGMMRKLGMKPGEAIEHPWVTKAIANAQR
B3: SecA N640 (SecA 1-640) (domain or fragment)
chain: MLIKLLTKVFGSRNDRTLRRMRKVVNIINAMEPEMEKLSDEELKGKTAEFRARLEKGEVLENLIPEAFAVVREASKRVFGMRHFDVQLLGGMVLNERCIAEMRTGEGKTLTATLPAYLNALTGKGVHVVTVNDYLAQRDAENNRPLFEFLGLTVGINLPGMPAPAKREAYAADITYGTNNEYGFDYLRDNMAFSPEERVQRKLHYALVDEVDSILIDEARTPLIISGPAEDSSEMYKRVNKIIPHLIRQEKEDSETFQGEGHFSVDEKSRQVNLTERGLVLIEELLVKEGIMDEGESLYSPANIMLMHHVTAALRAHALFTRDVDYIVKDGEVIIVDEHTGRTMQGRRWSDGLHQAVEAKEGVQIQNENQTLASITFQNYFRLYEKLAGMTGTADTEAFEFSSIYKLDTVVVPTNRPMIRKDLPDLVYMTEAEKIQAIIEDIKERTAKGQPVLVGTISIEKSELVSNELTKAGIKHNVLNAKFHANEAAIVAQAGYPAAVTIATNMAGRGTDIVLGGSWQAEVAALENPTAEQIEKIKADWQVRHDAVLEAGGLHIIGTERHESRRIDNQLRGRSGRQGDAGSSRFYLSMEDALMRIFASDRVSGMMRKLGMKPGEAIEHPWVTKAIANAQRKVESRNFD
B4: SecA N639* (SecA 1-639, F639D) (domain or fragment)
chain: MLIKLLTKVFGSRNDRTLRRMRKVVNIINAMEPEMEKLSDEELKGKTAEFRARLEKGEVLENLIPEAFAVVREASKRVFGMRHFDVQLLGGMVLNERCIAEMRTGEGKTLTATLPAYLNALTGKGVHVVTVNDYLAQRDAENNRPLFEFLGLTVGINLPGMPAPAKREAYAADITYGTNNEYGFDYLRDNMAFSPEERVQRKLHYALVDEVDSILIDEARTPLIISGPAEDSSEMYKRVNKIIPHLIRQEKEDSETFQGEGHFSVDEKSRQVNLTERGLVLIEELLVKEGIMDEGESLYSPANIMLMHHVTAALRAHALFTRDVDYIVKDGEVIIVDEHTGRTMQGRRWSDGLHQAVEAKEGVQIQNENQTLASITFQNYFRLYEKLAGMTGTADTEAFEFSSIYKLDTVVVPTNRPMIRKDLPDLVYMTEAEKIQAIIEDIKERTAKGQPVLVGTISIEKSELVSNELTKAGIKHNVLNAKFHANEAAIVAQAGYPAAVTIATNMAGRGTDIVLGGSWQAEVAALENPTAEQIEKIKADWQVRHDAVLEAGGLHIIGTERHESRRIDNQLRGRSGRQGDAGSSRFYLSMEDALMRIFASDRVSGMMRKLGMKPGEAIEHPWVTKAIANAQRKVESRND
B5: SecA N643 (SecA 1-643) (domain or fragment)
chain: MLIKLLTKVFGSRNDRTLRRMRKVVNIINAMEPEMEKLSDEELKGKTAEFRARLEKGEVLENLIPEAFAVVREASKRVFGMRHFDVQLLGGMVLNERCIAEMRTGEGKTLTATLPAYLNALTGKGVHVVTVNDYLAQRDAENNRPLFEFLGLTVGINLPGMPAPAKREAYAADITYGTNNEYGFDYLRDNMAFSPEERVQRKLHYALVDEVDSILIDEARTPLIISGPAEDSSEMYKRVNKIIPHLIRQEKEDSETFQGEGHFSVDEKSRQVNLTERGLVLIEELLVKEGIMDEGESLYSPANIMLMHHVTAALRAHALFTRDVDYIVKDGEVIIVDEHTGRTMQGRRWSDGLHQAVEAKEGVQIQNENQTLASITFQNYFRLYEKLAGMTGTADTEAFEFSSIYKLDTVVVPTNRPMIRKDLPDLVYMTEAEKIQAIIEDIKERTAKGQPVLVGTISIEKSELVSNELTKAGIKHNVLNAKFHANEAAIVAQAGYPAAVTIATNMAGRGTDIVLGGSWQAEVAALENPTAEQIEKIKADWQVRHDAVLEAGGLHIIGTERHESRRIDNQLRGRSGRQGDAGSSRFYLSMEDALMRIFASDRVSGMMRKLGMKPGEAIEHPWVTKAIANAQRKVESRNFDIRK

Columns and labels:
[1] = molecular target: SecYEG-SecDF•YajC (E. coli) (UniProt P0AGA2)
[2] = molecular target: SecA C34 (C-terminal 34 kD protein; SecA 610-901) (E. coli) (UniProt P10408)

| Binder | % pOmpA Translocation, +YEG: in vitro translocation of pOmpA into liposomes with SecYEG-SecDF•YajC (% pOmpA Translocation) [1] | Channel Activity, μA, +YEG: ion current in Xenopus oocytes injected with the fragment, liposomes, SecYEG-SecDF•YajC, pOmpA, ATP-Mg [1] | translocation of pOmpA, liposomes with SecYEG-SecDF•YajC, N-fragment reconstituted with C34 (Fig 6B) (% of the activity of intact SecA) [2] |
| --- | --- | --- | --- |
| B1 | 0 | 5.8 μA | 50 |
| B2 | – | 0.4 μA | – |
| B3 | – | 2.2 μA | 50 |
| B4 | – | 1.1 μA | – |
| B5 | – | 3.2 μA | – |
